This is an account of results in PMC8996214, “Aptamer blocking S-TLR4 interaction selectively inhibits SARS-CoV-2 induced inflammation”.

For data set [1], the target named is HCoV-HKU1 spike protein (HCoV-HKU1, UniProt Q5MQD0). Put plainly: ELISA. Particulars: protein: commercial. (In general: ELISA stands for enzyme-linked immunosorbent assay.)
In data set [2] the target is MERS-CoV spike protein (MERS-CoV, UniProt K9N5Q8 18-1296). The data set can be described thus: ELISA. Particulars: protein: commercial; chain copies: 3; label: 5'-biotin (BLI, ELISA); Cy3 (flow cytometry); FAM (imaging); G-quadruplex.
In data set [3] the target is SARS-CoV-2 spike RBD (SARS-CoV-2, UniProt P0DTC2 319-541). The data set can be described thus: ELISA.
For data set [4], the target named is TLR4 (UniProt O00206 24-631). The data set can be described thus: ELISA. Particulars: protein: commercial.
Data set [5] concerns the target SARS-CoV spike protein (SARS-CoV, UniProt P59594 14-1195). Put plainly: ELISA. As to conditions: protein: commercial; chain copies: 3; label: 5'-biotin (BLI, ELISA); Cy3 (flow cytometry); FAM (imaging); G-quadruplex.
Data set [6] concerns the target ACE2 (UniProt Q9BYF1 18-740). Put plainly: ELISA. As to conditions: protein: commercial.
Data set [7] deals with PDGF-AA (UniProt P04085 87-211). The data set can be described thus: ELISA. Particulars: protein: commercial; chain copies: 2.
Data set [8] concerns the target SARS-CoV-2 spike trimer (SARS-CoV-2, UniProt P0DTC2). The data set can be described thus: BLI. As to conditions: protein: commercial; tags: His.

Sequence of TLR4 (O00206 24-631): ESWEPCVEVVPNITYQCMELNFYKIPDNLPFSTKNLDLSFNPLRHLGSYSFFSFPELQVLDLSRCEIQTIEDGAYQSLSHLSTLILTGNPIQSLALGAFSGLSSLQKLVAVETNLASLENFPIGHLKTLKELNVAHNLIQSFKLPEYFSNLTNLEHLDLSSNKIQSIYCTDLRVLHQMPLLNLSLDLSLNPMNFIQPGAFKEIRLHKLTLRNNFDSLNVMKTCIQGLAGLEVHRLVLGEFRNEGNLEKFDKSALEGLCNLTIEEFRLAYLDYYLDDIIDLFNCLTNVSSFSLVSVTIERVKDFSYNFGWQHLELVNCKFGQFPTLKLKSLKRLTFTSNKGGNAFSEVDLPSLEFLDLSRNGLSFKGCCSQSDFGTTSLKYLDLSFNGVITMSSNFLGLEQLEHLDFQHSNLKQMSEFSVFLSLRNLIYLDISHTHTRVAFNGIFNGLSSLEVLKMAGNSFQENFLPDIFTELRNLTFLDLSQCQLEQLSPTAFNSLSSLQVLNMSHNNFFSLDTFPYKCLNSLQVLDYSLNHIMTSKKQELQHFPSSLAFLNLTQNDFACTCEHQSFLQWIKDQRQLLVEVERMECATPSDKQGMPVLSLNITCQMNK
Sequence of HCoV-HKU1 spike protein (Q5MQD0 13-1300): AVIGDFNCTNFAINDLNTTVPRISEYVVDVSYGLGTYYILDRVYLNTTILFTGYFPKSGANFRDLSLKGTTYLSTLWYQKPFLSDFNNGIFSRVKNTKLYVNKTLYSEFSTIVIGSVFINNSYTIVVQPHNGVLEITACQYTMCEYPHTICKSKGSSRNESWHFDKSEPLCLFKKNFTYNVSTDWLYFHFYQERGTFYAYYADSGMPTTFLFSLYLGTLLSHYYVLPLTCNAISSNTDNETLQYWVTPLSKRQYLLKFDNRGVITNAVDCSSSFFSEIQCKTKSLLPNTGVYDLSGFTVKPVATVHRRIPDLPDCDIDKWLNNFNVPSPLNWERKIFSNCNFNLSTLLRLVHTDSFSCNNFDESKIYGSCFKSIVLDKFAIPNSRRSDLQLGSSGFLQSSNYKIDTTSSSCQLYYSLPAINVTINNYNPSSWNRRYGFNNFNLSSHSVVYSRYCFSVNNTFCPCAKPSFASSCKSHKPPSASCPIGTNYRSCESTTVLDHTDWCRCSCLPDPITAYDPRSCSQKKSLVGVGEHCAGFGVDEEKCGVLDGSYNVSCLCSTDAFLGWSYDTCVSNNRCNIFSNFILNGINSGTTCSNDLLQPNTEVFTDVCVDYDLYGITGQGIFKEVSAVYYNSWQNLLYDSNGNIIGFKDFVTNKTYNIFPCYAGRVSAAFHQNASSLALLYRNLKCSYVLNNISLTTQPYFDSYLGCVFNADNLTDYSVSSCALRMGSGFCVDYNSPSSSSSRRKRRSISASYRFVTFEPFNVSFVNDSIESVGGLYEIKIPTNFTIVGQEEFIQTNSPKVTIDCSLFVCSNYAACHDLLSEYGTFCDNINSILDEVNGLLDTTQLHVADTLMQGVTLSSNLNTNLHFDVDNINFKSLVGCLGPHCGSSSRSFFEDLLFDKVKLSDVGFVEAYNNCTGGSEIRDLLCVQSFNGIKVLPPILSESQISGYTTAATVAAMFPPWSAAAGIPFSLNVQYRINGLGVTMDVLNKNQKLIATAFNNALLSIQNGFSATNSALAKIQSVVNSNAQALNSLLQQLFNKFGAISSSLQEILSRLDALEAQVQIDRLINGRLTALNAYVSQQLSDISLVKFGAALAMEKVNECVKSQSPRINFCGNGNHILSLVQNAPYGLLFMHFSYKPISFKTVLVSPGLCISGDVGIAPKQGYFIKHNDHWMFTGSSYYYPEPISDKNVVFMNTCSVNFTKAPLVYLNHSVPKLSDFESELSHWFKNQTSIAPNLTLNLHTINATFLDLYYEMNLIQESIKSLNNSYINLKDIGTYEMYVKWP
Sequence of ACE2 (Q9BYF1 18-740): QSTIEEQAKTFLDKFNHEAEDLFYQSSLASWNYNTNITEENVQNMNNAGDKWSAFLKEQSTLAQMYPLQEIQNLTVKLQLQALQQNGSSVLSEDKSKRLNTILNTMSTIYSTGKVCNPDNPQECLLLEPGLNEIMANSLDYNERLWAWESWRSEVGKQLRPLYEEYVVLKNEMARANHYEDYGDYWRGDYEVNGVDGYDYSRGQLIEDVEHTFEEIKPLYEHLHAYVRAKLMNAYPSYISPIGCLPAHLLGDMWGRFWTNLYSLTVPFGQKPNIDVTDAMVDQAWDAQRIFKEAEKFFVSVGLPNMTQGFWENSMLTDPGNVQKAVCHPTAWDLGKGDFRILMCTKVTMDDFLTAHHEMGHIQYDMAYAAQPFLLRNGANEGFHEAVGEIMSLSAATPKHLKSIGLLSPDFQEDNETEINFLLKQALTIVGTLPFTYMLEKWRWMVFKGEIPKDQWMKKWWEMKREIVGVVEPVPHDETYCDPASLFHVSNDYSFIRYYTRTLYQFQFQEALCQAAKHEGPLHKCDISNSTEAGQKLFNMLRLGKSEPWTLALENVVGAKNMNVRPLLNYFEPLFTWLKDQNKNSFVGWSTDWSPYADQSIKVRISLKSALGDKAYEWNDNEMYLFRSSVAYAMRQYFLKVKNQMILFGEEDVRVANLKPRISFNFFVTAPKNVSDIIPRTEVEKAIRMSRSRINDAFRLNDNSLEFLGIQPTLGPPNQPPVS
Sequence of MERS-CoV spike protein (K9N5Q8 18-1296): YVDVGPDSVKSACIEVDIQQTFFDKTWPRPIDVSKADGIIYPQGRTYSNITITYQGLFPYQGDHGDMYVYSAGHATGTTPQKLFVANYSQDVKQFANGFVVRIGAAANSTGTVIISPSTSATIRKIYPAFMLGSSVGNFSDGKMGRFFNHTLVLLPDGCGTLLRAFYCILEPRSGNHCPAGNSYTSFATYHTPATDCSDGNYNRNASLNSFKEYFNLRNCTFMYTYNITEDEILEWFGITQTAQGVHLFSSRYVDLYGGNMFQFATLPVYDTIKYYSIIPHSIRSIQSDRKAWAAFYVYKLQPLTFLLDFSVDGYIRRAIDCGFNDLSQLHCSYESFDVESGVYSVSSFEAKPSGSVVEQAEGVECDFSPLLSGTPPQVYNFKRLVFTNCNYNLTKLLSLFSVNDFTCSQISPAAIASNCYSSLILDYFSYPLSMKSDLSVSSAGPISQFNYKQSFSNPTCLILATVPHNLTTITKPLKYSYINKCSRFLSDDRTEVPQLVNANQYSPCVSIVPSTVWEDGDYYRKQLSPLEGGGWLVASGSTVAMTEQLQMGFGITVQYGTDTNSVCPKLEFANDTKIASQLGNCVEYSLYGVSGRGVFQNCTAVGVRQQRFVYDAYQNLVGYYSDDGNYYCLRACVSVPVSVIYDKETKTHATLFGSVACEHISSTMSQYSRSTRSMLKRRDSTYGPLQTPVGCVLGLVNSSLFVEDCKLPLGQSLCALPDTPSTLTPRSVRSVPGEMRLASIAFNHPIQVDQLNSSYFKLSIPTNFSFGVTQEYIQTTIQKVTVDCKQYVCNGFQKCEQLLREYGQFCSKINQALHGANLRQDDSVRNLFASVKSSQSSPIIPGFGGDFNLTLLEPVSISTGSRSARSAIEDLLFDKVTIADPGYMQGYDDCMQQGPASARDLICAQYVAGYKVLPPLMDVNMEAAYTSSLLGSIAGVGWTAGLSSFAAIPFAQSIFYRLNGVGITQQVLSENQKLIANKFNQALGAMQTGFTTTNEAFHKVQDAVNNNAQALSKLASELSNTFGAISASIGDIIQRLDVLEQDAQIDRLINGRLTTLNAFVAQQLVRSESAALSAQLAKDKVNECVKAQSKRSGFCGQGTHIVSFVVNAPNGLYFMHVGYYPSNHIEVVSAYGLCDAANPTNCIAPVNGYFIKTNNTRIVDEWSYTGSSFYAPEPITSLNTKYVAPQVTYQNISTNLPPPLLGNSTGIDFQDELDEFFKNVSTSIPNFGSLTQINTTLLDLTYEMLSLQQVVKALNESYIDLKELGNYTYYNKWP

B1: ST-6-1 (structured_DNA)
DNA: AGGGCATCAAAGGGGGGAGGGCGGGTGGATTGGATGCCGA
With B1, the binding result in data set [1], in data set [2], in data set [3], in data set [4], in data set [5] and in data set [6] was “no binding” each time. Further, the binding result was “no binding” in data set [7] and “binds” in data set [8].

B2: ST-6-2 (structured_DNA)
DNA: GGGGAGGGCGGGTGGATTGGATGCCGA
With B2, the binding result in data set [1], in data set [2], in data set [3], in data set [4], in data set [5] and in data set [6] was “no binding” throughout. The figures for the binding result in data set [7] and in data set [8] were “no binding” and “binds”, respectively.

B3: ST-6 (structured_DNA)
DNA: AGCAGCACAGAGGTCAGATGAGGGCATCAAAGGGGGGAGGGCGGGTGGATTGGATGCCGACCTATGCGTGCTACCGTGAA
For the molecule B3, the binding result in data set [1], in data set [2], in data set [3], in data set [4], in data set [5] and in data set [6] was “no binding” in each case. For the same molecule, the binding result was “no binding” in data set [7] and “binds” in data set [8].
